B1: "NAD(+) hydrolase SARM1" (Homo sapiens), Q6SZW1 (parent)
chain: MVLTLLLSAYKLCRFFAMSGPRPGAERLAVPGPDGGGGTGPWWAAGGRGPREVSPGAGTEVQDALERALPELQQALSALKQAGGARAVGAGLAEVFQLVEEAWLLPAVGREVAQGLCDAIRLDGGLDLLLRLLQAPELETRVQAARLLEQILVAENRDRVARIGLGVILNLAKEREPVELARSVAGILEHMFKHSEETCQRLVAAGGLDAVLYWCRRTDPALLRHCALALGNCALHGGQAVQRRMVEKRAAEWLFPLAFSKEDELLRLHACLAVAVLATNKEVEREVERSGTLALVEPLVASLDPGRFARCLVDASDTSQGRGPDDLQRLVPLLDSNRLEAQCIGAFYLCAEAAIKSLQGKTKVFSDIGAIQSLKRLVSYSTNGTKSALAKRALRLLGEEVPRPILPSVPSWKEAEVQTWLQQIGFSKYCESFREQQVDGDLLLRLTEEELQTDLGMKSGITRKRFFRELTELKTFANYSTCDRSNLADWLGSLDPRFRQYTYGLVSCGLDRSLLHRVSEQQLLEDCGIHLGVHRARILTAAREMLHSPLPCTGGKPSGDTPDVFISYRRNSGSQLASLLKVHLQLHGFSVFIDVEKLEAGKFEDKLIQSVMGARNFVLVLSPGALDKCMQDHDCKDWVHKEIVTALSCGKNIVPIIDGFEWPEPQVLPEDMQAVLTFNGIKWSHEYQEATIEKIIRFLQGRSSRDSSAGSDTSLEGAAPMGPT

Variants of: B1
Details: with myd88_human MYD88, Q99836
myd88_human MYD88, Q99836, sequence (Q99836 whole entry): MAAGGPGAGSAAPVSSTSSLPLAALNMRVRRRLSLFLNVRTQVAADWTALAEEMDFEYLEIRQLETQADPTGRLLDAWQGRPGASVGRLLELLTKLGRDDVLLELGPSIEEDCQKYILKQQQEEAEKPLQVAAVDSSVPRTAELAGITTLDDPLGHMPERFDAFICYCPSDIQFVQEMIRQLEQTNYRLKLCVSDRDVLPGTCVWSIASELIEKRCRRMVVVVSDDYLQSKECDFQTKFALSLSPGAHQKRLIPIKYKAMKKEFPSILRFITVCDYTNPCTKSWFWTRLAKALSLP

Variant	effect of a mutation on the interaction
G601A	disrupting interaction strength

Variants of: B1
Details: with tcam1_human TICAM1, Q8IUC6
tcam1_human TICAM1, Q8IUC6, sequence (Q8IUC6 whole entry): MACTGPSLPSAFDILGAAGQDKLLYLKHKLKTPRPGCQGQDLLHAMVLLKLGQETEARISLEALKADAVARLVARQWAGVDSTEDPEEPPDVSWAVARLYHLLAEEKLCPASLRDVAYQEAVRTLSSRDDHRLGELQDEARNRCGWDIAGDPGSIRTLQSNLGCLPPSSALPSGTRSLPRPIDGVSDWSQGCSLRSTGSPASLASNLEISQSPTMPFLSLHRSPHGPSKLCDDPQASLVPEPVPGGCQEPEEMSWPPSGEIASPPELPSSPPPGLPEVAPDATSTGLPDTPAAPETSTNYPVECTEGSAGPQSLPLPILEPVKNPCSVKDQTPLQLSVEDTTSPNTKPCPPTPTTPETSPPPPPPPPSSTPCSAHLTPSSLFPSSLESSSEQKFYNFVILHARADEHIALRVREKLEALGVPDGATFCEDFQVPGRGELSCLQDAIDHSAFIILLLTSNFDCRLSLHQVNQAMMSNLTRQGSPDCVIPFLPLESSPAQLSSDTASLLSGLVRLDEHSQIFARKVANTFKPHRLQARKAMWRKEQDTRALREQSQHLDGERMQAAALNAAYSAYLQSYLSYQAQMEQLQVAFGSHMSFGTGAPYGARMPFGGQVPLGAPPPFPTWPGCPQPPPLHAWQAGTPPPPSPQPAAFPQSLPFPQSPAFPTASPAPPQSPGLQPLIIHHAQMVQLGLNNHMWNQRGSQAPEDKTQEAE

Variant	effect of a mutation on the interaction
G601A	disrupting interaction strength

Variants of: B1
Details: with tirap_human TIRAP

Variant	effect of a mutation on the interaction
G601A	disrupting interaction strength

Variants of: B1
Details: with tcam2_human TICAM2, Q86XR7
tcam2_human TICAM2, Q86XR7, sequence (Q86XR7 whole entry): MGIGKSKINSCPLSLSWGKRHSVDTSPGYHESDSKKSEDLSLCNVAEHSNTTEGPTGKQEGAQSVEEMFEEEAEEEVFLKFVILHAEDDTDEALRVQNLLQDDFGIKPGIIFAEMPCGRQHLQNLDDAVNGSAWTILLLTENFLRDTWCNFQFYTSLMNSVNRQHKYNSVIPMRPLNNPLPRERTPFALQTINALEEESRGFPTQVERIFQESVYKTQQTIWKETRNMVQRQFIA

Variant	effect of a mutation on the interaction
G601A	disrupting interaction strength

Source: IntAct's records for PubMed 26592460
